Patent US20230192860A1 (Bristol-Myers Squibb, published 2023)

Assays:
[1] = target: T1, monovalent hVISTA-ECD (amino acids 32-193 of SEQ ID NO: 1 with a 7xHis tail) (human, UniProt Q9H7M9 33-193); assay: SPR 37C, Ab on Protein A, hVISTA-ECD 50-0.2 nM, pH 6.0
T1 construct: analyte of the SPR assays; also called huVISTA-His; human VISTA-ECD
Description: (§1) Surface plasmon resonance (SPR) analysis was performed to measure the association rates (defined as ka or kₒₙ, 1/Ms units), dissociation rates (defined as kd or koff, s⁻¹ units) and affinity constants (defined as KD, M units) for VISTA Abs at acidic and physiological pHs using a Biacore® T200 instrument (GE Healthcare). […] Antibodies were diluted to 20 nM in PBST pH 7.4, and were captured across active biosensor flow cells at 5 ul/min for 50 seconds. A concentration series of 50 - 0.2 nM monovalent hVISTA-ECD (SEQ ID NO: 325) was prepared in pH 7.4 and 6.0 running buffers, and was injected over the captured antibodies at 40 ul/min to measure association and dissociation. Two 15 second injections of 10 mM glycine pH 1.5 were used to regenerate the Protein A capture surface between assay cycles. Rate constants kₐ (kₒₙ) and kd (kₒff) were derived from reference flow cell and 0 nM blank-subtracted sensorgrams, and were fit to a 1:1 binding model in Biacore® T200 Evaluation Software v.2.0.

[2] = target: T1, monovalent hVISTA-ECD (amino acids …); assay: SPR 37C, Ab on Protein A, hVISTA-ECD 50-0.2 nM, column headed pH 7 (running buffer pH 7.4 in the text)
Description: as §1

[3] = target: T1, monovalent hVISTA-ECD (amino acids …); assay: SPR, pH 7.4 over pH 6.0
Description: (§2) Further binding kinetic experiments were performed at various pHs on VISTA antibodies described herein by SPR as generally described in Example 9 above. Antibodies were normalized to 50 nM concentration in PBST pH 7.4 and captured on a Protein A CM5 chip (ID 4931) by injecting for 45 seconds at a 5 µL/min flow rate. An 8-point human VISTA titration ([…]) was prepared in PBST at pH 7.4, 6.9, 6.45, and 6.0. Titrations were injected over the captured antibodies for 180 seconds at 30 µL/min. Sensorgrams were fit to a 1:1 binding model in T200 evaluation software and the kinetic constants were reported.
Each table reports the data at one of the four tested pHs (7.4, 6.9, 6.45, and 6.0, respectively). The 8-point hVISTA titration used in these assays was chosen to provide increased confidence in kinetic values reported at neutral pH conditions. A relatively stringent cutoff for non-binding was applied in this assay. Certain progeny of P1-061029 antibody (P1-068757, ‘759, ‘765, ‘771, and ‘775) show no binding to hVISTA at micromolar concentrations at pH 7.4, while ‘761 and ‘767 show no binding to hVISTA at 100 nM at pH 7.4 but do show binding to hVISTA at micromolar concentrations.

[4] = target: T1, monovalent hVISTA-ECD (amino acids …); assay: SPR 37C, Ab on Protein A, hVISTA-ECD 100-0.78 nM, pH 7.4
Description: Human VISTA binding kinetics of P1-061029 (“ ‘029”), P1-068761 (“ ‘761”) and P1-068767 (“ ‘767”) (as IgG1.3 antibodies) were measured at pH values between pH 7.4 and pH 6.0, i.e., at pH 6.9 and pH 6.45 using a Biacore® T100 instrument (GE Healthcare). […] Antibodies were diluted to 25 nM in PBST pH 7.4, and were captured across active biosensor flow cells at 5 ul/min for 45 seconds. A concentration series of 100 - 0.78 nM monovalent hVISTA-ECD (SEQ ID NO: 325) was prepared pH 7.4, 6.9, 6.45 and 6.0 running buffers, and was injected over the captured antibodies at 40 ul/min to measure association and dissociation. Two 15 second injections of 10 mM glycine pH 1.5 were used to regenerate the Protein A capture surface between assay cycles. Rate constants ka (kₒₙ) and kd (koff) were derived from reference flow cell and 0 nM blank-subtracted sensorgrams, and were fit to a 1:1 binding model in Biacore® T200 Evaluation Software v.2.0. The affinity constant, KD was calculated as the ratio of rate constants koff/kₒₙ for each VISTA antibody. Ratios of koff and KD at each pH relative to pH 6.0 were calculated to evaluate how the VISTA koff and KD change as the buffer pH shifts to physiological, and are shown in Table 7. […] As the buffer pH shifts from acidic to physiological, VISTA koff and KD both weaken for ‘761 and ‘767. Physiological pH data for ‘761 and ‘767 for comparison is referenced from Table 7 and noted with an asterisk (*).

[5] = target: T1, monovalent hVISTA-ECD (amino acids …); assay: SPR, Ab on Protein A, hVISTA 100-7.8 nM, pH 7.4
Description: as §2

[6] = target: T1, monovalent hVISTA-ECD (amino acids …); assay: SPR 37C, pH 7.4 * over pH 6.0

T1 sequence (Q9H7M9 other isoform, or with tags, fused parts or gaps limits assumed): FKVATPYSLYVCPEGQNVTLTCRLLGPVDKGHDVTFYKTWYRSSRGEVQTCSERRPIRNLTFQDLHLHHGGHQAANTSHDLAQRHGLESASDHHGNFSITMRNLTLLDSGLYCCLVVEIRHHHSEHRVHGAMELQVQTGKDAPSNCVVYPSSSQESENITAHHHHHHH

Binder	koff [1] [s⁻¹]	koff [2] [s⁻¹]	7.4 KD/ 6.0 KD [3]	7.4 kd/ 6.0 kd [3]	Kd [4] [nM]	koff [4] [s⁻¹]	kon [4] [M⁻¹ s⁻¹]	Kd [5] [nM]	koff [5] [s⁻¹]	kon [5] [M⁻¹ s⁻¹]	KD ratio to pH 6.0 [6]	koff ratio to pH 6.0 [6]
P1-061029.IgG1.3 (antibody, IgG1.3; also called P1-061029 (parent); P1-061029-18) heavy: EVQLVESGGGLVQPGKSLRLSCAASGFTLDDYAMHWVRQAPGKGLEWVSGINWNSANIGYADSVKGRFTISRDNAKNSLYLQMNSLRTEDTALYYCAKVPGYSGGWIDAFDVWGQGTMVTVSSASTKGPSVFPLAPSSKSTSGGTAALGCLVKDYFPEPVTVSWNSGALTSGVHTFPAVLQSSGLYSLSSVVTVPSSSLGTQTYICNVNHKPSNTKVDKRVEPKSCDKTHTCPPCPAPEAEGAPSVFLFPPKPKDTLMISRTPEVTCVVVDVSHEDPEVKFNWYVDGVEVHNAKTKPREEQYNSTYRVVSVLTVLHQDWLNGKEYKCKVSNKALPAPIEKTISKAKGQPREPQVYTLPPSREEMTKNQVSLTCLVKGFYPSDIAVEWESNGQPENNYKTTPPVLDSDGSFFLYSKLTVDKSRWQQGNVFSCSVMHEALHNHYTQKSLSLSPG light: not shown	0.0048	0.0091	4.5	1.1	26	0.0064	250000	13	0.00603	463000	–	–
P1-068761.IgG1.3 (antibody, IgG1.3; also called P1-068761-20; P1-068761 hIgG1.3f) heavy: EVQLVESGGGLVQPGKSLRLSCAASGFTLEDEAMHWVRQAPGKGLEWVSGINWNSEEIGYADSVKGRFTISRDNAKNSLYLQMNSLRTEDTALYYCAKVPGYSHGWIDAEDVWGQGTMVTVSSASTKGPSVFPLAPSSKSTSGGTAALGCLVKDYFPEPVTVSWNSGALTSGVHTFPAVLQSSGLYSLSSVVTVPSSSLGTQTYICNVNHKPSNTKVDKRVEPKSCDKTHTCPPCPAPEAEGAPSVFLFPPKPKDTLMISRTPEVTCVVVDVSHEDPEVKFNWYVDGVEVHNAKTKPREEQYNSTYRVVSVLTVLHQDWLNGKEYKCKVSNKALPAPIEKTISKAKGQPREPQVYTLPPSREEMTKNQVSLTCLVKGFYPSDIAVEWESNGQPENNYKTTPPVLDSDGSFFLYSKLTVDKSRWQQGNVFSCSVMHEALHNHYTQKSLSLSPG light: not shown	–	–	–	–	–	–	–	–	–	–	~10000	~63.6
